Measured values from PMC3745347, “Interaction of Glucocorticoid Receptor (GR) with Estrogen Receptor (ER) α and Activator Protein 1 (AP1) in Dexamethasone-mediated Interference of ERα Activity*” (The Journal of Biological Chemistry, 2013).

Molecular target: T1, baculovirus expressed full-length human GR (human, UniProt P04150 1-777)
T1 construct: human glucocorticoid receptor, full length, baculovirus-expressed; source: produced in baculovirus, bought: Invitrogen, partially purified
T1 sequence (looked up): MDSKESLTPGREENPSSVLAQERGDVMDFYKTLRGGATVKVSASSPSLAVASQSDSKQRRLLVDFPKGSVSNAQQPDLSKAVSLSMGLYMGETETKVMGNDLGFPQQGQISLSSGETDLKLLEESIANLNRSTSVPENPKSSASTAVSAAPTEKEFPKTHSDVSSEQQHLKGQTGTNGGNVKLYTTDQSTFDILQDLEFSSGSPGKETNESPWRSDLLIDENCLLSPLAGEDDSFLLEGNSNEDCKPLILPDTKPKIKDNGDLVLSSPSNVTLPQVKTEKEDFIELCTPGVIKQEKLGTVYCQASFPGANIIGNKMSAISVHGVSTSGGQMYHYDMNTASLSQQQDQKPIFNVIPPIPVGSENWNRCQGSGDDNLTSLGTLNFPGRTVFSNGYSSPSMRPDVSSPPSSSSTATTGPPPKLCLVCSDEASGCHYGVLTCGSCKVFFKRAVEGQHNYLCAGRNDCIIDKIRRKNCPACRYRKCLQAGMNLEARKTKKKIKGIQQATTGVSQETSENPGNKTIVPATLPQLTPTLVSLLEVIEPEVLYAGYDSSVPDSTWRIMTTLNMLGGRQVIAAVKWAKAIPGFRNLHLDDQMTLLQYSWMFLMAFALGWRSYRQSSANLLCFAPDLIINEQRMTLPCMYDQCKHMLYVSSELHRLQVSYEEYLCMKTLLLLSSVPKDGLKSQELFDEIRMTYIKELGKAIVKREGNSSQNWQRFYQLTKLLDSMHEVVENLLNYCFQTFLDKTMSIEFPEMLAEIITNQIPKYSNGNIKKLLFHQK
Test: pull-down; GST-ERα proteins on glutathione beads incubated with baculovirus-expressed, partially purified human GR; 50 mM Tris pH 8.0, 5 mM EDTA, 150 mM NaCl, 0.5% Nonidet P-40, 1 h at 4 °C; washes with up to 500 mM NaCl; blot for GR
Conditions: both partners purified

B1: GST-ERα-N (aa 1-250) (domain or fragment, human, UniProt P03372 1-250, looked up)
chain: MTMTLHTKASGMALLHQIQGNELEPLNRPQLKIPLERPLGEVYLDSSKPAVYNYPEGAAYEFNAAAAANAQVYGQTGLPYGPGSEAAAFGSNGLGGFPPLNSVSPSPLMLLHPPPQLSPFLQPHGQQVPYYLENEPSGYTVREAGPPAFYRPNSDNRRQGGRERLASTNDKGSMAMESAKETRYCAVCNDYASGYHYGVWSCEGCKAFFKRSIQGHNDYMCPATNQCTIDKNRRKSCQACRLRKCYEVGM
notes: estrogen receptor alpha, residues 1-250 (N-terminal region: AF1 and DBD); Made in pGEX-6P1; the species of the GST construct itself is not separately stated; also called N-terminal half of ERα
  binding result: binds
